Measured values as given in article PMC2770179 (Journal of molecular catalysis. B, Enzymatic, 2009).
Positions count from the first letter of the chain named.

What was measured:
[1] = molecular target: T1, L2S of hE2 (residues 128-330) mutant K276A (human, UniProt P10515 214-416, K276A); test: SPR
T1 sequence (looked up): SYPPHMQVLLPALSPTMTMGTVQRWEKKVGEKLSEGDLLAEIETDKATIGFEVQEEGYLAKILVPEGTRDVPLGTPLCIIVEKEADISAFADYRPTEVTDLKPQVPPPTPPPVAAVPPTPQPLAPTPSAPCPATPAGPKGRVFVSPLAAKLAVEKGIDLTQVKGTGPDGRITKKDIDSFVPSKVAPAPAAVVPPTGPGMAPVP

[2] = molecular target: T2, L2S of hE2 (residues 128-330) mutant R297A (human, UniProt P10515 214-416, R297A); test: SPR
T2 sequence (looked up): T1 sequence (looked up) with A149K, R170A

B1: human pyruvate dehydrogenase (E1), wild type, α2β2 heterotetramer (complex)
chain 1: FANDATFEIKKCDLHRLEEGPPVTTVLTREDGLKYYRMMQTVRRMELKADQLYKQKIIRGFCHLCDGQEACCVGLEAGINPTDHLITAYRAHGFTFTRGLSVREILAELTGRKGGCAKGKGGSMHMYAKNFYGGNGIVGAQVPLGAGIALACKYNGKDEVCLTLYGDGAANQGQIFEAYNMAALWKLPCIFICENNRYGMGTSVERAAASTDYYKRGDFIPGLRVDGMDILCVREATRFAAAYCRSGKGPILMELQTYRYHGHSMSDPGVSYRTREEIQEVRSKSDPIMLLKDRMVNSNLASVEELKEIDVEVRKEIEDAAQFATADPEPPLEELGYHIYSSDPPFEVRGANQWIKFKSVS
chain 2: LQVTVRDAINQGMDEELERDEKVFLLGEEVAQYDGAYKVSRGLWKKYGDKRIIDTPISEMGFAGIAVGAAMAGLRPICEFMTFNFSMQAIDQVINSAAKTYYMSGGLQPVPIVFRGPNGASAGVAAQHSQCFAAWYGHCPGLKVVSPWNSEDAKGLIKSAIRDNNPVVVLENELMYGVPFEFPPEAQSKDFLIPIGKAKIERQGTHITVVSHSRPVGHCLEAAAVLSKEGVECEVINMRTIRPMDMETIEASVMKTNHLVTVEGGWPQFGVGAEICARIMEGPAFNFLDAPAVRVTGADVPMPYAKILEDNSIPQVKDIIFAIKKTLNI
fold increase in KD against wild-type L2S [1]: ~86 fold
fold increase in KD against wild-type L2S [2]: 6.8 fold
